# Experimental data taken from the nanobody polyreactivity screen of Harvey et al. (2022).
# Experiment: yeast display, Sf9 membrane polyspecificity reagent, FACS + sequencing; frameworks hold sequencing errors
# Method in brief: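 Galactose-induced (36–48 hours) yeast carrying a synthetic nanobody display library were exposed to 10% biotinylated, detergent-solubilized Sf9 membrane reagent at 4 °C for 1 hour. FACS followed streptavidin microbead enrichment, using low and high (top ~1%) gates for expression (anti-HA) and reagent binding (streptavidin). Colony PCR, MiSeq 2 × 250 sequencing and CDR-length filtering followed. Labels for polyreactivity reflect the gate of origin.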
row,Sequence,polyreactivity (PSR sort gate)
1,QVQLVESGGGLVQAGGSLRLSCAASGSTFYYYAMGWYRQAPGKERELVAAIRLIGGTTYYADSVKGRFTISRDNAKNTVYLQMNSLKPEDTAVYYCNARYSTGYTSPSYWGVYKHYDSWGQGTQVTVSS,low polyreactivity
2,QVQLVESGGGLVQAGGSLRLSCAASGSTFGYYAMGWYRQAPGNEREFVAAITYGDGNTYYADSVKGRFTISRDNAKNTVYLQMNRLKPEDTAVYYCAKYYWAPTGAHGGYGYWGQGTQVTVSS,low polyreactivity
3,QVQLVESGGGLVQAGGSLRLSCAASGSTFYPYAMGWYIQAPGKERELVARISSDGSTYADSVKGRFTISRDNAKNTVYLQMNSLKPEDTAVYYCNADAGTGVGWWDDYDYWGQGTQVTVSS,low polyreactivity
4,QVQLVESGGGLVQAGGSLRLSCAASGSTFWGYTMGWYRQAPGKERELVAAITSGGSTNYADSVKGRFTISRDNAKNTVYLQMNSLKPEDTAVYYCNAVYPGRRRYRKWYIYDYWGQGTQVTVSS,high polyreactivity
5,QVQLVESGGGLVQAGGSLRLSCAASGFTFAFYAMGWYRQAPGKERELVAAISRRGGSTTYADSVKGRFTISRDNAKNTVYLQMNSLKPEDTAVYYCAAGWRGGRYRYFAYDYWGQGTQVTVSS,high polyreactivity
6,QVQLVESGGGLVQAGGSRRLRCAASGRIFKNYAMGWYRQAPGKERELVAAMTWSVGSTYYADSVKGRFTISRDNAKKTVYLQMNSLKPEDTAVNYCAARRSGTYRYRYEYWGQGSQVTVSS,low polyreactivity
7,QVQLVESGGGLVQAGGSLRLSCAASGRTLSYYAMGWYRQAPGKEREFVAAINWSGGSTYYADSVKGRFTISRDNAKNTVYLQMNSLKPEDTAVYYCAAYRPYSSSEGDYWGQGTQVTVSS,high polyreactivity
8,QVQLVESGGGLVQAGGSLRLSCAASGFTFGFYVMGWYRQAPGKERELVAAITVRAGSTYYADSVKGRFTISRDNAKNTVYLQMNSLKPEDTAVYYCAADSYRLYSSIAYYGMYSWGQGTQVTVSS,high polyreactivity
9,QVQLVESGGGLVQAGGSLRLSCASSGFIIYSYAMGWYRQAPGKERELVAVISSRGGTTYYADSVKGRFTISRDNAKNTVYLQMNSLKPEDTAVYYCAADVWGPYDYWGQGTQVTVSS,low polyreactivity
10,QVQLVESGGGLVQAGGSLRLSCAASGNIFRNNAMGWYRQAPGKERELVAAISYSGGRTYYADSVKGRFTISRDNAKNTVYLQMNSLKPEDTAVYYCAVTYGRNADDYEYWGQGTQVTVSS,high polyreactivity
11,QVQLVESGGGLVQAGGSLRLSCAASGIIVDYYAMGWYRQAPGKERELVATITSGGSTNYADSVKGRFTISRDNAKNTVYLPMNSVKPEDTAVYYCAARTYWFPDIYPGLGMDYWGQGTQVTVSS,low polyreactivity
12,QVQLVESGGGLVQAGGILRLSCAASGSIFLYNALGWYRQAPGKERELVAAISKSGGSTYYADSVKGRFTISRDNAKNTVYLQMNSLKPEDTAVYYCAAGYGRLIRYGSDYDYWGQGTQVTVSS,low polyreactivity
13,QVQLVESGVGLVQAGGSLRLSCAASGTTIVSYAMGWYRQAPGKEMEFVATISISGTSTYYADSVKGRFTISRDNAKNTVYLQMNSLKPEDTAVYYCAARLRPRGATQFYRYDYWGQGTQVTVSS,high polyreactivity
14,QVQLVESGGGLVQAGGSLRLSCAASGSTFVANAMGWYRQAPGKERELVAAISFNRGGNTYYADSVKGRFTISRDNAKNTVYLQMNSLKPEDTAVYYCAARNSYGNWRYYYWGQGTQVTVSS,high polyreactivity
15,QVQLVESGGGLVQAGGSLRLSCAASGSIFVGNTMGWYRQAPGKERELVAALTWSGGRTYYADSVKGRFTISRDNEKNTVYLQMHSLKPEDTAVYYCNALANYIRYYYWGQGTQVTVSS,high polyreactivity
16,QVQLVESGGGLVQAGGSLRLSCAASGFILYRYAMGWYRQAPGKERELVAAISSGGRTYYADSVKGRFTISRDNAKNTVYLQMNSLKPEDTAVYYCNAAYKNSPYDYWGQGTQVTVSS,high polyreactivity
17,QLQLVESGGGLVQAGGSLRLSCAASGLTFVDYAMGWYRQAPGKERELVAAITSSGGSITYYADSVKGRFTISRDNAKNTVYLQLNSLKPEDTAVYYCNADYGIYTDSFRGPDYESWGQGTQVTVSS,low polyreactivity
